{"source": "paper PMC2288786", "about": "(BMC Structural Biology, 2008)", "origin": "cited, not measured here", "molecules": {"B1": {"name": "full-length myelin basic protein: full-length myelin basic protein of earlier studies (protein, UniProt P02686 1-304, looked up)", "chain": "MGNHAGKRELNAEKASTNSETNRGESEKKRNLGELSRTTSEDNEVFGEADANQNNGTSSQDTAVTDSKRTADPKNAWQDAHPADPGSRPHLIRLFSRDAPGREDNTFKDRPSESDELQTIQEDSAATSESLDVMASQKRPSQRHGSKYLATASTMDHARHGFLPRHRDTGILDSIGRFFGGDRGAPKRGSGKDSHHPARTAHYGSLPQKSHGRTQDENPVVHFFKNIVTPRTPPPSQGKGRGLSLSRFSWGAEGQRPGFGYGGRASDYKSAHKGFKGVDAQGTLSKIFKLGGRDSRSGSPMARR", "modifications": "full-length", "notes": "full-length myelin basic protein of earlier studies"}}, "target": "CaM", "conditions": "previously observed for full-length MBP; ref [18],[21]", "from_the_text": "Background The myelin sheath is a multilamellar membrane structure wrapped around the axon, enabling the saltatory conduction of nerve impulses in vertebrates. […] In this study, we focus on a 19-mer synthetic peptide from the predicted calmodulin-binding segment near the C-terminus of human myelin basic protein. […] The binding of the ...", "data": [{"molecule": "B1", "values": [{"measurement": "Kd in words", "result": "low μM range"}]}]}
